What was measured:
[1] = biological target: AAV-2 capsid mutant N568A/V571A (rAAV-2 virion) (AAV-2) (UniProt P03135); test: all-human IgG ELISA, against wild type
[2] = biological target: AAV-2 capsid mutant S130T (rAAV-2 virion) (AAV-2) (UniProt P03135); test: all-human IgG ELISA, against wild type
[3] = biological target: AAV-2 capsid mutant N568K (rAAV-2 virion) (AAV-2) (UniProt P03135); test: all-human IgG ELISA, against wild type
[4] = biological target: AAV-2 capsid mutant H372Q (rAAV-2 virion) (AAV-2) (UniProt P03135); test: all-human IgG ELISA, against wild type
[5] = biological target: AAV-2 capsid mutant D357E (rAAV-2 virion) (AAV-2) (UniProt P03135); test: all-human IgG ELISA, against wild type
[6] = biological target: AAV-2 capsid mutant R334A/N568A (rAAV-2 virion) (AAV-2) (UniProt P03135); test: all-human IgG ELISA, against wild type
[7] = biological target: AAV-2 capsid mutant D132N (rAAV-2 virion) (AAV-2) (UniProt P03135); test: all-human IgG ELISA, against wild type
[8] = biological target: AAV-2 capsid mutant E393D (rAAV-2 virion) (AAV-2) (UniProt P03135); test: all-human IgG ELISA, against wild type
[9] = biological target: AAV-2 capsid mutant G449A (rAAV-2 virion) (AAV-2) (UniProt P03135); test: all-human IgG ELISA, against wild type
[10] = biological target: AAV-2 capsid mutant G246A (rAAV-2 virion) (AAV-2) (UniProt P03135); test: all-human IgG ELISA, against wild type
[11] = biological target: AAV-2 capsid mutant S130A (rAAV-2 virion) (AAV-2) (UniProt P03135); test: all-human IgG ELISA, against wild type
[12] = biological target: AAV-2 capsid mutant N360H (rAAV-2 virion) (AAV-2) (UniProt P03135); test: all-human IgG ELISA, against wild type
[13] = biological target: AAV-2 capsid mutant T413K (rAAV-2 virion) (AAV-2) (UniProt P03135); test: all-human IgG ELISA, against wild type
[14] = biological target: AAV-2 capsid mutant N568A (rAAV-2 virion) (AAV-2) (UniProt P03135); test: all-human IgG ELISA, against wild type
[15] = biological target: AAV-2 capsid mutant H372K (rAAV-2 virion) (AAV-2) (UniProt P03135); test: all-human IgG ELISA, against wild type
[16] = biological target: AAV-2 capsid mutant E411A/T413A (rAAV-2 virion) (AAV-2) (UniProt P03135); test: all-human IgG ELISA, against wild type
[17] = biological target: AAV-2 capsid mutant V571K (rAAV-2 virion) (AAV-2) (UniProt P03135); test: all-human IgG ELISA, against wild type
[18] = biological target: AAV-2 capsid mutant R334A/G449A/N568A (rAAV-2 virion) (AAV-2) (UniProt P03135); test: all-human IgG ELISA, against wild type
[19] = biological target: AAV-2 capsid mutant H134Q (rAAV-2 virion) (AAV-2) (UniProt P03135); test: all-human IgG ELISA, against wild type
[20] = biological target: AAV-2 capsid mutant G449A/N568A (rAAV-2 virion) (AAV-2) (UniProt P03135); test: all-human IgG ELISA, against wild type
[21] = biological target: AAV-2 capsid mutant E411A/T413A/G449A/N450A (rAAV-2 virion) (AAV-2) (UniProt P03135); test: all-human IgG ELISA, against wild type
[22] = biological target: AAV-2 capsid mutant R334A/G449A (rAAV-2 virion) (AAV-2) (UniProt P03135); test: all-human IgG ELISA, against wild type
[23] = biological target: AAV-2 capsid mutant R334A (rAAV-2 virion) (AAV-2) (UniProt P03135); test: all-human IgG ELISA, against wild type
[24] = biological target: AAV-2 capsid mutant K395A (rAAV-2 virion) (AAV-2) (UniProt P03135); test: cell-based or functional assay
[25] = biological target: AAV-2 capsid mutant V571A (rAAV-2 virion) (AAV-2) (UniProt P03135); test: cell-based or functional assay
[26] = biological target: AAV-2 capsid mutant E394A (rAAV-2 virion) (AAV-2) (UniProt P03135); test: cell-based or functional assay
[27] = biological target: AAV-2 capsid mutant W365A (rAAV-2 virion) (AAV-2) (UniProt P03135); test: cell-based or functional assay
[28] = biological target: AAV-2 capsid mutant G449A (rAAV-2 virion) (AAV-2) (UniProt P03135); test: cell-based or functional assay
[29] = biological target: AAV-2 capsid mutant S130A (rAAV-2 virion) (AAV-2) (UniProt P03135); test: cell-based or functional assay
[30] = biological target: AAV-2 capsid mutant N568A (rAAV-2 virion) (AAV-2) (UniProt P03135); test: cell-based or functional assay
[31] = biological target: AAV-2 capsid mutant H372K (rAAV-2 virion) (AAV-2) (UniProt P03135); test: cell-based or functional assay
[32] = biological target: AAV-2 capsid mutant Q452A (rAAV-2 virion) (AAV-2) (UniProt P03135); test: cell-based or functional assay
[33] = biological target: AAV-2 capsid mutant E418A (rAAV-2 virion) (AAV-2) (UniProt P03135); test: cell-based or functional assay
[34] = biological target: AAV-2 capsid mutant V571K (rAAV-2 virion) (AAV-2) (UniProt P03135); test: cell-based or functional assay
[35] = biological target: AAV-2 capsid mutant R334A/G449A/N568A (rAAV-2 virion) (AAV-2) (UniProt P03135); test: cell-based or functional assay
[36] = biological target: AAV-2 capsid mutant S127A (rAAV-2 virion) (AAV-2) (UniProt P03135); test: cell-based or functional assay
[37] = biological target: AAV-2 with a wild-type capsid (rAAV-2 virion) (AAV-2) (UniProt P03135); test: all-human IgG ELISA, virus needed for half maximal OD, against wild type

purified human IgG from >10,000 donors (Panglobulin, ZLB Bioplasma AG)
Fold decrease in binding of human IgG [1]: 1 fold | Fold decrease in binding of human IgG [2]: 1 fold | Fold decrease in binding of human IgG [3]: 1 fold | Fold decrease in binding of human IgG [4]: 1 fold | Fold decrease in binding of human IgG [5]: 1 fold | Fold decrease in binding of human IgG [6]: 1 fold | Fold decrease in binding of human IgG [7]: 1 fold | Fold decrease in binding of human IgG [8]: 1 fold | Fold decrease in binding of human IgG [9]: 1 fold | Fold decrease in binding of human IgG [10]: 1 fold | Fold decrease in binding of human IgG [11]: 1 fold | Fold decrease in binding of human IgG [12]: 1 fold | Fold decrease in binding of human IgG [13]: 1 fold | Fold decrease in binding of human IgG [14]: 1 fold | Fold decrease in binding of human IgG [15]: 1 fold | Fold decrease in binding of human IgG [16]: 1 fold | Fold decrease in binding of human IgG [17]: 10 fold | Fold decrease in binding of human IgG [18]: 1 fold | Fold decrease in binding of human IgG [19]: 1 fold | Fold decrease in binding of human IgG [20]: 1 fold | Fold decrease in binding of human IgG [21]: 1 fold | Fold decrease in binding of human IgG [22]: 1 fold | Fold decrease in binding of human IgG [23]: 1 fold | Fold decrease in neutralizing titer [24]: 4.9 fold | Fold decrease in neutralizing titer [25]: 3.9 fold | Fold decrease in neutralizing titer [26]: 1.5 fold | Fold decrease in neutralizing titer [27]: 10.4 fold | Fold decrease in neutralizing titer [28]: 2.5 fold | Fold decrease in neutralizing titer [29]: 1.4 fold | Fold decrease in neutralizing titer [30]: 2 fold | Fold decrease in neutralizing titer [31]: 1.1 fold | Fold decrease in neutralizing titer [32]: 1.3 fold | Fold decrease in neutralizing titer [33]: 1.5 fold | Fold decrease in neutralizing titer [34]: 1 fold | Fold decrease in neutralizing titer [35]: 3 fold | Fold decrease in neutralizing titer [36]: 2.2 fold | Fold decrease in binding of human IgG [37]: 1 fold

Source: patent US20190314526A1
